Key:
HLA-B*4801 (B48) (human) = assay: Luminex single-antigen beads (iBeads), culture supernatant
HLA-B*3501 (B35) (human) = assay: as above
HLA-B*5101 (B51) (human) = assay: as above
HLA-B*4002 (B61) (human) = assay: as above
HLA-B*4403 (B44) (human) = assay: as above
HLA-B*4101 (B41) (human) = assay: as above
HLA-B*4601 (B46) (human) = assay: as above
HLA-B*4501 (B45) (human) = assay: as above
HLA-B*4901 (B49) (human) = assay: as above
HLA-B*4402 (B44) (human) = assay: as above
HLA-B*4001 (B60) (human) = assay: as above
HLA-B*4201 (B42) (human) = assay: as above
HLA-B*3901 (B39) (human) = assay: as above
HLA-B*5001 (B50) (human) = assay: as above
HLA-B*3801 (B38) (human) = assay: as above
HLA-B*3701 (B37) (human) = assay: as above
HLA-B*4701 (B47) (human) = assay: as above
HLA-B*4006 (B61) (human) = assay: as above
[1] = biological target: HLA-A*0206 (A2) single antigen bead (human); assay: Luminex single antigen bead assay (IBEADS), culture supernatant
[2] = biological target: HLA-A*2402 (A24) single antigen bead (human); assay: as above
[3] = biological target: Negative control beads coated with serum albumin (HSA/BSA) (human or bovine); assay: as above
[4] = biological target: HLA-A*3001 (A30) single antigen bead (human); assay: as above
[5] = biological target: HLA-A*0203 (A2) single antigen bead (human); assay: as above
[6] = biological target: HLA-A*2902 (A29) single antigen bead (human); assay: as above
[7] = biological target: HLA-A*0101 (A1) single antigen bead (human); assay: as above
[8] = biological target: HLA-A*2601 (A26) single antigen bead (human); assay: as above
[9] = biological target: HLA-A*0201 (A2) single antigen bead (human); assay: as above
[10] = biological target: HLA-A*2403 (A24) single antigen bead (human); assay: as above
[11] = biological target: HLA-A*1102 (A11) single antigen bead (human); assay: as above
[12] = biological target: HLA-A*0301 (A3) single antigen bead (human); assay: as above
[13] = biological target: HLA-A*1101 (A11) single antigen bead (human); assay: as above
[14] = biological target: HLA-A*3002 (A30) single antigen bead (human); assay: as above
[15] = biological target: HLA-A*2501 (A25) single antigen bead (human); assay: as above
[16] = biological target: HLA-A*2901 (A29) single antigen bead (human); assay: as above
[17] = biological target: HLA-A*2301 (A23) single antigen bead (human); assay: as above

Q: Which results are given for TFL Anti-HLA-E Mab PTG-006 (antibody)?
A: MFI (HLA-B*4801 (B48) (human)): 21 MFI; MFI (HLA-B*3501 (B35) (human)): 60 MFI; MFI (HLA-B*5101 (B51) (human)): 45 MFI; MFI (HLA-B*4002 (B61) (human)): 33 MFI; MFI (HLA-B*4403 (B44) (human)): 18 MFI; MFI (HLA-B*4101 (B41) (human)): 89 MFI; MFI (HLA-B*4601 (B46) (human)): 23 MFI; MFI (HLA-B*4501 (B45) (human)): 18 MFI; MFI (HLA-B*4901 (B49) (human)): 71 MFI; MFI (HLA-B*4402 (B44) (human)): 32 MFI; MFI (HLA-B*4001 (B60) (human)): 28 MFI; MFI (HLA-B*4201 (B42) (human)): 32 MFI; MFI (HLA-B*3901 (B39) (human)): 21 MFI; MFI (HLA-B*5001 (B50) (human)): 67 MFI; MFI (HLA-B*3801 (B38) (human)): 24 MFI; MFI (HLA-B*3701 (B37) (human)): 43 MFI; MFI (HLA-B*4701 (B47) (human)): 38 MFI; MFI (HLA-B*4006 (B61) (human)): 41 MFI; MFI [1]: 27 MFI; MFI [2]: 42 MFI; MFI [3]: 6 MFI; MFI [4]: 45 MFI; MFI [5]: 31 MFI; MFI [6]: 23 MFI; MFI [7]: 28 MFI; MFI [8]: 57 MFI; MFI [9]: 31 MFI; MFI [10]: 53 MFI; MFI [11]: 60 MFI; MFI [12]: 36 MFI; MFI [13]: 51 MFI; MFI [14]: 69 MFI; MFI [15]: 24 MFI; MFI [16]: 115 MFI; MFI [17]: 36 MFI

From patent US10800847
